According to patent US20040197858A1:

Tests used:
[1] = target: purified recombinant α-thrombin (human) (UniProt P00734); experiment: cell-based or functional assay
[2] = target: purified α-thrombin derived from plasma (human) (UniProt P00734); experiment: cell-based or functional assay

Inhibition by ATIII: Secondary reaction constant [1]: 0.57 µM⁻¹ min⁻¹
Inhibition by ATIII: Secondary reaction constant [2]: 0.65 µM⁻¹ min⁻¹
Substance: antithrombin III
